Test results from patent US20180100008A1 (VHSQUARED, published 2018).

B1: ID1C (bispecific antibody)
chain: DVQLQESGGGLVQAGGSLRLSCAASGATSDVYAIGWFRQVPGKEREFVATINRSGSDSYYADSVKGRFTISRDNAKNTVYLQMNSLKPEETAVYYCAASRSDCIGYGCRRVSQDYWGQGTQVTVSSGGGGSGGGGSGGGGSGGGGSDVQLQESGGGLVQAGGSLRLSCVISGMDFSHKPAGWFRQAPGKEREFVASITTRASTHYADSVKGRFTISRDNAKNTVYLEMNSLKPEDTAVYYCNSEYYWGQGTQVTVSSGGGGSGGGGSGGGGSGGGGSDVQLQESGGGLVQAGDSLRLSCAASGATLSSYTIGWFRQAPEKEREFVAGSSRDGRTNYYANSVKGRFTISRDNAKNTVYLQMNSLKPEDTAVYYCAAHTTSGVPVRERSYAYWGQGTQVTVSSGGGGSGGGGSGGGGSGGGGSDVQLQESGGGLVQAGGSLRLSCAASGATFSSYYIGWFRQAPGKEREFVAAINGSGGNRISADSVKGRFTISRDNAKNTVYLQLNSLKPEDTAVYYCAASLTYYGRSARYDYWGQGTQVTVSS
B2: ID3C (bispecific antibody)
chain: DVQLQESGGGLVQAGDSLRLSCAASGATLSSYTIGWFRQAPEKEREFVAGSSRDGRTNYYANSVKGRFTISRDNAKNTVYLQMNSLKPEDTAVYYCAAHTTSGVPVRERSYAYWGQGTQVTVSSGGGGSGGGGSGGGGSGGGGSDVQLQESGGGLVQAGGSLRLSCAASGATSDVYAIGWFRQVPGKEREFVATINRSGSDSYYADSVKGRFTISRDNAKNTVYLQMNSLKPEETAVYYCAASRSDCIGYGCRRVSQDYWGQGTQVTVSSGGGGSGGGGSGGGGSGGGGSDVQLQESGGGLVQAGGSLRLSCVISGMDFSHKPAGWFRQAPGKEREFVASITTRASTHYADSVKGRFTISRDNAKNTVYLEMNSLKPEDTAVYYCNSEYYWGQGTQVTVSSGGGGSGGGGSGGGGSGGGGSDVQLQESGGGLVQAGGSLRLSCAASGATFSSYYIGWFRQAPGKEREFVAAINGSGGNRISADSVKGRFTISRDNAKNTVYLQLNSLKPEDTAVYYCAASLTYYGRSARYDYWGQGTQVTVSS

Columns and labels:
[1] = target: T1, TcdB from C. difficile ribotype 087 (Clostridium difficile ribotype 087 …, UniProt P18177 2-2366); experiment: sandwich ELISA (figure legend)
T1 construct: also called 087 TcdB; 10463 (087)

[2] = target: T2, TcdB from C. difficile ribotype 027 (Clostridium difficile ribotype 027 …, UniProt P18177 2-2366); experiment: ELISA, TcdB coated, quadrahead detected with rabbit polyclonal anti-ICVD
T2 construct: also called 027 TcdB; R20291 (027)

[3] = target: T2, TcdB from C. difficile ribotype 027; experiment: sandwich ELISA: TcdB coated, quadrahead, then TcdA, rabbit anti-TcdA pAb
[4] = target: T1, TcdB from C. difficile ribotype 087; experiment: as above

Binder	binding result [1]	binding result [2]	binding result [3]	binding result [4]
B1	binds	binds		
B2			binds	binds
